Consider two compounds from paper PMC9692976, “Characterization of a Glycolipid Synthase Producing α-Galactosylceramide in Bacteroides fragilis” (International Journal of Molecular Sciences, 2022).

The target of data set [1] is T1, αGalCer_GT (BF9343_3149; αCerGal_GT) (Bacteroides fragilis, UniProt A0A380YRQ3).
T1 construct: full length, SUMO fusion at N-terminus and Strep-tag (C-terminal in Results; Methods also says N-terminal Strep-tag), tags kept, codon-optimised gene, E. coli BL21(DE3) Star, StrepTrap purified
As to the kind of experiment: HPLC with fluorescence detection of αGalCer-NBD, initial rates. The following applies: substrate inhibition constant; second site; 1.25 mM UDP-Gal, Cer-NBD solubilized with equimolar BSA, pH 7.5, 37 °C; labelled compound. The class given is biochemical.

Data set [2] concerns CCCCCCCCCCCCC/C=C/[C@@H](O)[C@H](CO)NC(=O)CCCCCNc1ccc([N+](=O)[O-])c2nonc12. The experiment in a line: purified protein. The following applies: 1.25 mM UDP-Gal, Cer-NBD solubilized with equimolar BSA, pH 7.5, 37 °C, fit with substrate inhibition, labelled compound.
The test system of data set [3] is O=c1ccn([C@@H]2O[C@H](COP(=O)(O)OP(=O)(O)O[C@H]3O[C@H](CO)[C@H](O)[C@H](O)[C@H]3O)[C@@H](O)[C@H]2O)c(=O)[nH]1. As to the kind of experiment: purified protein. The settings on record: 25 µM Cer-NBD with equimolar BSA, pH 7.5, 37 °C, fit with substrate inhibition.

T1 sequence (A0A380YRQ3 entry or part of it): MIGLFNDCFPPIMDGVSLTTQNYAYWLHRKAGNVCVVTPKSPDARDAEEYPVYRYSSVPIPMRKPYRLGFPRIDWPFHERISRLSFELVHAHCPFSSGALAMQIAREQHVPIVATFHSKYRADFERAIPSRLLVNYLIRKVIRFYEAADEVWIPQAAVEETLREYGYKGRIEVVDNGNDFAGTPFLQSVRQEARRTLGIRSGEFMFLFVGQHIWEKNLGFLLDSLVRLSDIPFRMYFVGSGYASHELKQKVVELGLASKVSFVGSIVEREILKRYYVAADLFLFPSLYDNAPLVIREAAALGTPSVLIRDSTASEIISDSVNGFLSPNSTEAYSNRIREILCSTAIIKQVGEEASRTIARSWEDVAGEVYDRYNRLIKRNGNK

For `CCCCCCCCCCCCC/C=C/[C@@H](O)[C@H](CO)NC(=O)CCCCCNc1ccc([N+](=O)[O-])c2nonc12` [Cer-NBD, N-[6-[(7-nitro-2-1,3-benzoxadiazol-4-yl)amino]hexanoyl]-D-erythro-sphin-gosine], the KI in data set [1] is on record as 161 µM.

As usually defined, the Km is the substrate concentration at which the rate is half of its maximum. Turning to “αGalCer_GT (BF9343_3149; αCerGal_GT) (Bacteroides fragilis NCTC 9343)”, the Michaelis constant (Km) in data set [2] was determined as 4.6 µM; in data set [3], 218 µM.
